According to the supplement of paper PMC9233669:
This sample holds only a part of the variants without activity.

Tests used:
biotinyl-Trp-oxazolone = experiment: self-aminoacylation, catalytic enhancement (BWO) (fold over background); higher = more active; k-Seq, kA / k0A0; sequences stand for … in GGGAAUGGAUCCACAUCUACGAAUUC…UUCACUGCAGACUUGACGAAGCUG
Procedure, shortened: (§1)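 Mutagenized RNA pools with a 21-nt variable region (0.43 μM) reacted with each biotinyl-aminoacyl-oxazolone at 2–1250 μM. Reactions ran in 50 μL HEPES/NaCl/KCl/MgCl2/CaCl2 buffer with 5% acetonitrile, pH 6.9–7.0, for 90 minutes at room temperature. Streptavidin-captured RNA was quantified by triplicate qPCR and Illumina sequencing, and per-sequence fraction reacted was fit to a pseudo-first-order model with 1000 bootstraps. Catalytic enhancement is median kA divided by the uncatalyzed rate, the low-activity peak of a bimodal Gaussian fit.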

biotinyl-Val-oxazolone = experiment: self-aminoacylation, catalytic enhancement (BVO) (fold over background); higher = more active; k-Seq, kA / k0A0; sequences stand for … in GGGAAUGGAUCCACAUCUACGAAUUC…UUCACUGCAGACUUGACGAAGCUG
Procedure, shortened: as §1

biotinyl-Phe-oxazolone = experiment: self-aminoacylation, catalytic enhancement (BFO) (fold over background); higher = more active; k-Seq, kA / k0A0; sequences stand for … in GGGAAUGGAUCCACAUCUACGAAUUC…UUCACUGCAGACUUGACGAAGCUG
Procedure, shortened: as §1

biotinyl-Leu-oxazolone = experiment: self-aminoacylation, catalytic enhancement (BLO) (fold over background); higher = more active; k-Seq, kA / k0A0; sequences stand for … in GGGAAUGGAUCCACAUCUACGAAUUC…UUCACUGCAGACUUGACGAAGCUG
Procedure, shortened: as §1

biotinyl-Met-oxazolone = experiment: self-aminoacylation, catalytic enhancement (BMO) (fold over background); higher = more active; k-Seq, kA / k0A0; sequences stand for … in GGGAAUGGAUCCACAUCUACGAAUUC…UUCACUGCAGACUUGACGAAGCUG
Procedure, shortened: as §1

biotinyl-Ile-oxazolone = experiment: self-aminoacylation, catalytic enhancement (BIO) (fold over background); higher = more active; k-Seq, kA / k0A0; sequences stand for … in GGGAAUGGAUCCACAUCUACGAAUUC…UUCACUGCAGACUUGACGAAGCUG
Procedure, shortened: as §1

Sequence	self-aminoacylation (biotinyl-Trp-oxazolone)	self-aminoacylation (biotinyl-Val-oxazolone)	self-aminoacylation (biotinyl-Phe-oxazolone)	self-aminoacylation (biotinyl-Leu-oxazolone)	self-aminoacylation (biotinyl-Met-oxazolone)	self-aminoacylation (biotinyl-Ile-oxazolone)
AUUACCAUGGGCAUCGAGUGA [Fam2.1 aminoacylation ribozyme variant]	7.88	3.13	30.7	6.48	6.01	3
CGACACUUCAAGCAAACGGUC [Fam1B.1 aminoacylation ribozyme variant]	0.612	0.76	0.979	0.537	0.687	0.814
AUCACCCUGGUCUUCGAGUGA [Fam2.1 aminoacylation ribozyme variant]	9.14	4.74	50.3	8.44	8.01	3.81
CCACCCUUCAAGCAAUAGGUC [Fam1B.1 aminoacylation ribozyme variant]	0.452	0.711	0.807	0.529	0.575	0.645
AGUUACCUAGGUCAUCGGGUG [Fam2.2 aminoacylation ribozyme variant]	6.91	4.62	40.1	6.47	5.38	4.59
CGACUUCAAACAAUUGGUCUG [Fam1A.1 aminoacylation ribozyme variant]	1.25	0.891	1.57	0.999	0.91	1.06
AUUACCCUGGUCGACGAGUGA [Fam2.1 aminoacylation ribozyme variant]	6.05	3.33	26.4	5.32	5.53	2.86
AUUCGCCUAGGACAUCGGGUG [Fam2.2 aminoacylation ribozyme variant]	3.67	3.02	19.1	4.25	3.03	2.29
AUUCCCUUGGUCAUCGAGUGA [Fam2.1 aminoacylation ribozyme variant]	14.7	6.58	71.8	12.3	11.8	6.22
AAGUUUCCUAAUAGUCGCAAA [Fam3.1 aminoacylation ribozyme variant]	1.96	1.43	3.59	1.99	1.74	1.99
AUUCACAUAAGUCAUCGGGUG [Fam2.2 aminoacylation ribozyme variant]	12.4	6.79	95.4	18.3	11.8	7.61
AUUCCCCUAGGUGAUCGGGUG [Fam2.2 aminoacylation ribozyme variant]	10.8	7.89	47.7	11.8	10.9	7.9
CUAGUUAAAACAAUCGGUCUG [Fam1A.1 aminoacylation ribozyme variant]	0.622	0.679	0.675	0.801	0.958	0.795
CUUCACCUAGGUCAUCGUGUG [Fam2.2 aminoacylation ribozyme variant]	1.12	1.26	3.33	1.39	1.6	1.21
AUUAGCCUGGUCAUCGACUGA [Fam2.1 aminoacylation ribozyme variant]	0.565	1.04	1.59	1.13	1.21	1.22
AUUCACCCAAGUCAUCGGGUG [Fam2.2 aminoacylation ribozyme variant]	10.1	5.86	92.9	14.8	11	5.59
AUAUUUGCUAAUAGUCGCAAG [Fam3.1 aminoacylation ribozyme variant]	1.75	1.49	2.04	1.37	1.35	1.57
ACGUUUGCUAAUAGUCGCAAC [Fam3.1 aminoacylation ribozyme variant]	0.859	1.18	1.42	1.43	0.972	1.36
AUUCACCGAGGUCAUCUGGUG [Fam2.2 aminoacylation ribozyme variant]	3.61	2.69	34.6	5.72	4.31	2.39
CUACUUAAAACCAUCGGUCUG [Fam1A.1 aminoacylation ribozyme variant]	1.36	0.923	1.22	0.846	1.1	0.927
AUUCGCCUAGGUAAUCGGGUG [Fam2.2 aminoacylation ribozyme variant]	2.77	2.43	28	3.88	3.62	2.02
AUUACCCAGGUCAUCCAGUGA [Fam2.1 aminoacylation ribozyme variant]	6.41	3.14	24.2	5.76	5.32	3.13
GAGUUUGCUAAUAGUCGGAAG [Fam3.1 aminoacylation ribozyme variant]	4.68	1.38	11.6	1.16	1.6	1.38
CCACACUUCAAGCAUUAGGUC [Fam1B.1 aminoacylation ribozyme variant]	0.516	0.645	0.818	0.504	0.399	0.501
AGGUUUACUAAUAGUCGCAAG [Fam3.1 aminoacylation ribozyme variant]	1.81	1.47	4.12	1.49	1.84	1.58
CUACUUCCAACAGUCGGUCUG [Fam1A.1 aminoacylation ribozyme variant]	0.76	0.851	0.496	0.971	1.06	0.911

Sequence	self-aminoacylation (biotinyl-Trp-oxazolone)	self-aminoacylation (biotinyl-Val-oxazolone)	self-aminoacylation (biotinyl-Phe-oxazolone)	self-aminoacylation (biotinyl-Leu-oxazolone)	self-aminoacylation (biotinyl-Met-oxazolone)	self-aminoacylation (biotinyl-Ile-oxazolone)
AAGCACCUAGGUCAUCGGGUG [Fam2.2 aminoacylation ribozyme variant]	4.45	2.91	23.6	2.66	3.13	2.84
AUUUGCCUGGUCAUCGAGUGA [Fam2.1 aminoacylation ribozyme variant]	9.16	4.54	13.1	8.2	8	4.47
AUUCACCUAGUUCACCGGGUG [Fam2.2 aminoacylation ribozyme variant]	3.92	2.41	15.6	3.58	3.25	2.37
CUACUUCAAACUAUCGGUCUA [Fam1A.1 aminoacylation ribozyme variant]	0.62	0.912	1.08	0.696	0.729	0.944
CCACACUUCAAGCAAUCGCAC [Fam1B.1 aminoacylation ribozyme variant]	0.672	0.889	0.785	0.465	0.814	0.76
CUUCUACAAACAAUCGGUCUG [Fam1A.1 aminoacylation ribozyme variant]	0.564	0.831	0.956	0.623	0.763	0.694
AUUACCCUAGUCAUCGGGUGA [Fam2.1 aminoacylation ribozyme variant]	9.08	4.8	49.2	8.62	7.55	4.76
AAGUUUUCUAAUAGUCGCAUG [Fam3.1 aminoacylation ribozyme variant]	1.91	1.2	3.44	1.85	1.4	1.78
AAGGUUGGUAAUAGUCGCAAG [Fam3.1 aminoacylation ribozyme variant]	2.15	1.38	2.09	1.55	1.59	1.48
CCACUUCAAACAAUCGGGCUG [Fam1A.1 aminoacylation ribozyme variant]	27.2	3.05	27.3	2.63	2.13	2.12
AAAUUUGCUAAUAGUCCCAAG [Fam3.1 aminoacylation ribozyme variant]	0.979	1.03	1.68	0.923	0.644	1.24
CUACUUCAAACAAUCGUUGUG [Fam1A.1 aminoacylation ribozyme variant]	1.38	1.15	1.69	1.7	1.68	1.17
AUUACCCUUGUCAUCUAGUGA [Fam2.1 aminoacylation ribozyme variant]	8.68	3.81	26.5	7.22	7.09	3.76
CCACACUUUAAGCAAUCGGUA [Fam1B.1 aminoacylation ribozyme variant]	0.553	0.95	0.889	0.63	0.722	0.788
CUACUUUAAAAAAUCGGUCUG [Fam1A.1 aminoacylation ribozyme variant]	0.72	0.87	0.887	0.744	0.987	1.01
AUUCACCUAGGCCAACGGGUG [Fam2.2 aminoacylation ribozyme variant]	3.02	2.04	14.5	4.01	2.61	2.23
CUACUUCAAACAAAGGGUCUG [Fam1A.1 aminoacylation ribozyme variant]	0.669	0.724	0.589	0.567	0.763	0.756
AUUCACCUAGGUCAUCAGGUG [Fam2.2 aminoacylation ribozyme variant]	1.39	1.3	1.31	1.56	1.39	1.19
CUACUUAAUACAAUCGGUCUG [Fam1A.1 aminoacylation ribozyme variant]	0.631	0.849	0.835	0.761	0.89	0.782
CUACUUCAAGCCAUCGGUCUG [Fam1A.1 aminoacylation ribozyme variant]	0.696	1.04	0.772	1.15	0.729	0.89
AUUGACCUAGGUGAUCGGGUG [Fam2.2 aminoacylation ribozyme variant]	6.18	3.78	25.9	5.78	4.22	4.21
AUUACCCUGGUCAGCGCGUGA [Fam2.1 aminoacylation ribozyme variant]	6.87	3.95	35.3	6.5	5.84	3.45
AUUACCAUGGUCAUCGAGCGA [Fam2.1 aminoacylation ribozyme variant]	1.64	1.79	1.04	1.98	2.24	1.73
ACACACUACAAGCAAUCGGUC [Fam1B.1 aminoacylation ribozyme variant]	1.02	1.24	1.65	0.855	0.815	1.2
AGGUUAGCUAAUAGUCGCAAG [Fam3.1 aminoacylation ribozyme variant]	3.06	1.77	2.66	2.16	1.46	1.97
